Laboratory results taken from paper PMC10583174.

Biological target: glucagon receptor (GCGR) (mouse (endogenous in primary hepatocytes)) (UniProt Q61606)
Assay: radioligand binding

UniProt Q61606, sequence (Q61606 27-485): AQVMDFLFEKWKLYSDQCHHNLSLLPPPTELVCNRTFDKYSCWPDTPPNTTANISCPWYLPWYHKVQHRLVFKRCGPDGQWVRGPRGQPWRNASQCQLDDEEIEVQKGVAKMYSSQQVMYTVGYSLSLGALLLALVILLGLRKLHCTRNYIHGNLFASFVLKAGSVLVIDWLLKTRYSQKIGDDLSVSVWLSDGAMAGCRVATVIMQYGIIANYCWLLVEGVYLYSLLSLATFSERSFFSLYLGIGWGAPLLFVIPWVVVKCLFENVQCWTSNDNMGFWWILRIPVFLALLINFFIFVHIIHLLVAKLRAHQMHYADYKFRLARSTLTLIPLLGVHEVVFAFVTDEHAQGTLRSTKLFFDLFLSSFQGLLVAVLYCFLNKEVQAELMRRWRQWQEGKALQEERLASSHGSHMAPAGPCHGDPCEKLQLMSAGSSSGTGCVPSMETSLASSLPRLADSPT

fold Kd, GNE LKO over GNE WT hepatocytes: 10 fold
Substance: glucagon (human) (peptide)
